# According to paper PMC10769878:
# Target: phi3T_93 (Bacillus subtilis phage phi3T)
# Experiment: SEC-MALS; 20 µl at 1 mg/ml on Shodex KW-402.5-4F, 100 mM HEPES pH 7.5, 250 mM NaCl, 0.3 ml/min
substance,measurement,value
phi3T_93 (natural protein),stoichiometry N,2
